Five molecules from patent publication EP4574844A1 (Numab Therapeutics AG, dated 2025) can be followed below.

Assay [1] addresses T1, human PD-L1 on the cell surface (human, UniProt Q9NZQ7 19-290). The assay is described as follows: cell-based or functional assay.
In assay [2] the target is T2, recombinant human PDL1 (human, UniProt Q9NZQ7 19-238, limits assumed).
T2 construct: SPR antigen; also called CD274; B7-H1
The assay is described as follows: SPR. (In general: Surface plasmon resonance follows binding to a sensor surface in real time, without labels.)

Assay [3] deals with T3, recombinant cynomolgus PDL1 (cynomolgus monkey, UniProt G7PSE7 19-238).
T3 construct: also called cynom; PDL1
The assay is described as follows: SPR.

In assay [4] the target is human CD47 on the cell surface (human, UniProt Q08722 19-323). Put plainly: cell-based or functional assay.
Assay [5] has as its target T1, human PD-L1 on the cell surface. The assay is described as follows: cell-based or functional assay. The source holds these as a separate data set.
Assay [6] addresses T4, human LILRB2 on the cell surface (human, UniProt Q8N423 22-597). The assay is described as follows: cell-based or functional assay.
In assay [7] the target is T4, human LILRB2 on the cell surface. The assay is described as follows: cell-based or functional assay. The source holds these as a separate data set.
A further assay has as its target recombinant human CD47 (human, UniProt Q08722 19-139, limits assumed). Put plainly: SPR, antigen immobilised, antibody as analyte.
Assay [8] deals with T2, recombinant human PDL1. The assay is described as follows: SPR, antigen immobilised, antibody as analyte.
For the next assay, the target named is T5, recombinant human LILRB2 (human, UniProt Q8N423 22-460, limits assumed).
T5 construct: also called ILT4
Put plainly: SPR, antibody captured by anti-framework IgG, antigen as analyte (without avidity).

T3 sequence (G7PSE7 entry or part of it): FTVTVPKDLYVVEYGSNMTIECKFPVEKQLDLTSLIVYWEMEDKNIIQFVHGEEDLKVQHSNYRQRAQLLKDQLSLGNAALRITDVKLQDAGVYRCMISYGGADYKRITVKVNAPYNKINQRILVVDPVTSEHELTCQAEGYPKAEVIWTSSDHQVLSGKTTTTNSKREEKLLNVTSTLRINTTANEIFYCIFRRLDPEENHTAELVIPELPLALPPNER
T5 sequence (Q8N423 22-460 limits assumed): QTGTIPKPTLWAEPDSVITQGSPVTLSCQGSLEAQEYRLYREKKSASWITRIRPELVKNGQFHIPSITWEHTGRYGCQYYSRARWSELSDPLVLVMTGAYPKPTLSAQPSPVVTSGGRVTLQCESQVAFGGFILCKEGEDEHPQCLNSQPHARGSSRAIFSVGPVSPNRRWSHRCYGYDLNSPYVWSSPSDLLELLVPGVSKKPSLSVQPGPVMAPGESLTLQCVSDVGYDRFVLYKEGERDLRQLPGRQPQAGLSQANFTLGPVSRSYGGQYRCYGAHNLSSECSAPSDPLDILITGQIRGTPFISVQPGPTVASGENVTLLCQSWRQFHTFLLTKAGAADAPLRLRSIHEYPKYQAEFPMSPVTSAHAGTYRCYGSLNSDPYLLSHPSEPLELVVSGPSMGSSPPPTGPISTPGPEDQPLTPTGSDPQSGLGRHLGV
T4 sequence (Q8N423 22-597): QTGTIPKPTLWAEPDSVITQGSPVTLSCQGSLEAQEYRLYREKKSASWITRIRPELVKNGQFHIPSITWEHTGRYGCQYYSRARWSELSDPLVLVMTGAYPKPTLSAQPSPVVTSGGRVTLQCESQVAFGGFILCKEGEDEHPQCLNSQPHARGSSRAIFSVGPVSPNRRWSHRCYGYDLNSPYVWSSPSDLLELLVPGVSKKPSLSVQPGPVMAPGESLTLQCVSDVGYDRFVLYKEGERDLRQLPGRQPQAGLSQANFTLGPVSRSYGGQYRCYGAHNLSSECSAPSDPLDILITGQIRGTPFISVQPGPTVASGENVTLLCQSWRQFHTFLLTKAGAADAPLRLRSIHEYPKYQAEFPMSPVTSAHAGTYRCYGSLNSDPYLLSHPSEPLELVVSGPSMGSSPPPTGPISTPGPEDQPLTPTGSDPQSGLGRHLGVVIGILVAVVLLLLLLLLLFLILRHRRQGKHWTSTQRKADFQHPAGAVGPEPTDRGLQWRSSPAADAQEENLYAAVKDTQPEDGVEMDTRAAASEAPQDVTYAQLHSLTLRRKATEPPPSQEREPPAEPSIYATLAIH

B1: PRO4245 (scFv)
scFv: DIQMTQSPSSLSASVGDRVTITCQASQSIGTYLAWYQQKPGKPPKLLIYRGGILASGVPSRFSGSGSGTDFTLTISSLQPEDFATYYCQSNFYSDSTTIGPNAFGTGTKVTVLGGGGGSGGGGSGGGGSGGGGSQQLVESGGGLVQPGGSLRLSCAASGFSFNSDYWIYWVRQAPGKGLEWIASIYGGSSGNTQYASWAQGRFTISKDNSKNTVYLQMNSLRAEDSAVYFCARGYVDYGGATDLWGQGTLVKVSS
notes: anti-PDL1 scFv
The koff is a measure of how fast the partners let go of each other. For orientation: kon means a measure of how fast the partners come together. In the case of B1, in assay [1], the “PDL1/PD-1 EC50 [nM], NFAT reporter gene assay” value was determined as 1.81 nM and the “PDL1/PD-1 Max. inhibition (rel. to avelumab) [%]” value is 106%. Also, in the assay with recombinant human PDL1 [2], the Kd came to 0.036 nM, the koff was found to be 0.00014 s⁻¹ and the kon was 4e+06 M⁻¹ s⁻¹. In [3], the Kd came to 0.032 nM, the off-rate constant (koff) came to 0.00014 s⁻¹ and the kon amounted to 4.6e+06 M⁻¹ s⁻¹.

B2: PRO3891 (scFv)
scFv: DIQMTQSPSSLSASVGDRVTITCQASQSINDYLAWYQQKPGKAPKLLIYKGGTLASGVPSRFSGSGSGTDFTLTISSLQPEDFATYYCQQGYIITDIDNVFGTGTKVTVLGGGGGSGGGGSGGGGSGGGGSQVQLQESGPGLVKPSETLSLTCKASGFSFSSGYDMCWVRQPPGKGLEWIACVVAGSVDITYYASWAKGRVTISKDSSKNQVSLKLSSVTAADSAVYYCARKDAYSDAFNLWGQGTLVKVSS
notes: anti-PDL1 scFv
Consider B2, for which, in [1], the “PDL1/PD-1 EC50 [nM], NFAT reporter gene assay” value was 1.36 nM and the “PDL1/PD-1 Max. inhibition (rel. to avelumab) [%]” value was found to be 94.6%. In addition, in the assay with recombinant human PDL1 [2], the Kd was found to be 0.0041 nM, the koff stood at 3.9e-05 s⁻¹ and the kon was 6e+06 M⁻¹ s⁻¹. In addition, in [3], the Kd turned out to be 0.0034 nM, the koff was 2.9e-05 s⁻¹ and the kon was 5.9e+06 M⁻¹ s⁻¹.

B3: PRO4673 (antibody)
chain 1: DVQMTQSPSSLSASVGDRVTITCQASQSISSWVSWYQQKPGKPPKLLIYRGGYLESGVPSRFSASGSGTDFTLTISSLQPEDFATYYCQSTDSSTYGGAFGCGTKVTVLGGGGGSGGGGSGGGGSGGGGSQQVVESGGGLVQPGGSLRLSCAVSGIDLNSYAMTWVRQAPGKCLEWIGYIGSASSTYYASWASGRFTISKDNSKNTVYLQMNSLRAEDSAVYFCARGSTYINIWGQGTLVKVSSEPKSSDKTHTCPPCPAPELLGGPSVFLFPPKPKDTLMISRTPEVTCVVVDVSHEDPEVKFNWYVDGVEVHNAKTKPREEQYNSTYRVVSVLTVLHQDWLNGKEYKCKVSNKALPAPIEKTISKAKGQPREPQVYTLPPCREEMTKNQVSLSCAVKGFYPSDIAVEWESNGQPENNYKTTPPVLDSDGSFFLVSKLTVDKSRWQQGNVFSCSVMHEALHNHYTQKSLSLSPGKGGGGSGGGGSDIQMTQSPSSLSASVGDRVTITCQSSESVYSNNQLSWYQQKPGQPPKLLIYDASDLASGVPSRFSGSGSGTDFTLTISSLQPEDFATYYCAGGFSSSSDTAFGCGTKLTVLGGGGGSGGGGSGGGGSGGGGSEVQLVESGGGLVQPGGSLRLSCAASGFSLSSNAMGWVRQAPGKCLEYIGIISVGGFTYYASWAKGRFTISRDNSKNTVYLQMNSLRAEDSATYFCARDRHGGDSSGAFYLWGQGTLVKVSS
chain 2: not shown
As to B3, the “CD47 driven EC50 [nM], phagocytosis of H292 cells” value (“CD47 driven EC50 [nM]” for short) in assay [4] amounted to 11 nM. In addition, in assay [5], the “PD-L1 driven EC50 [nM], phagocytosis of H292 cells” value (from here on “PD-L1 driven EC50 [nM]”) is 0.18 nM.

B4: PRO4687 (antibody, human IgG1, kappa)
chain: DVQMTQSPSSLSASVGDRVTITCQASQSISSWVSWYQQKPGKPPKLLIYRGGYLESGVPSRFSASGSGTDFTLTISSLQPEDFATYYCQSTDSSTYGGAFGCGTKVTVLGGGGGSGGGGSGGGGSGGGGSQQVVESGGGLVQPGGSLRLSCAVSGIDLNSYAMTWVRQAPGKCLEWIGYIGSASSTYYASWASGRFTISKDNSKNTVYLQMNSLRAEDSAVYFCARGSTYINIWGQGTLVKVSSEPKSSDKTHTCPPCPAPELLGGPSVFLFPPKPKDTLMISRTPEVTCVVVDVSHEDPEVKFNWYVDGVEVHNAKTKPREEQYNSTYRVVSVLTVLHQDWLNGKEYKCKVSNKALPAPIEKTISKAKGQPREPQVYTLPPCREEMTKNQVSLSCAVKGFYPSDIAVEWESNGQPENNYKTTPPVLDSDGSFFLVSKLTVDKSRWQQGNVFSCSVMHEALHNHYTQKSLSLSPGKGGGGSGGGGSDVQMTQSPSSLSASVGDRVTITCQASQSIGSNLAWYQQKPGKPPKLLIYKGGTLESGVPSRFSGSGSGTDFTLTISSLQPEDFATYYCQSTAGSSRSGNYGYVFGCGTKVTVLGGGGGSGGGGSGGGGSGGGGSQQLVESGGGLVQPGGSLRLSCAASGFSFTNNYYMCWVRQAPGKCLEWIACMLVGAWGNTYYASWANGRFTISKDNSKNTVYLQMNSLRAEDSAVYFCARARDYTWTLGGDPETSGFNLWGQGTLVKVSS
heavy: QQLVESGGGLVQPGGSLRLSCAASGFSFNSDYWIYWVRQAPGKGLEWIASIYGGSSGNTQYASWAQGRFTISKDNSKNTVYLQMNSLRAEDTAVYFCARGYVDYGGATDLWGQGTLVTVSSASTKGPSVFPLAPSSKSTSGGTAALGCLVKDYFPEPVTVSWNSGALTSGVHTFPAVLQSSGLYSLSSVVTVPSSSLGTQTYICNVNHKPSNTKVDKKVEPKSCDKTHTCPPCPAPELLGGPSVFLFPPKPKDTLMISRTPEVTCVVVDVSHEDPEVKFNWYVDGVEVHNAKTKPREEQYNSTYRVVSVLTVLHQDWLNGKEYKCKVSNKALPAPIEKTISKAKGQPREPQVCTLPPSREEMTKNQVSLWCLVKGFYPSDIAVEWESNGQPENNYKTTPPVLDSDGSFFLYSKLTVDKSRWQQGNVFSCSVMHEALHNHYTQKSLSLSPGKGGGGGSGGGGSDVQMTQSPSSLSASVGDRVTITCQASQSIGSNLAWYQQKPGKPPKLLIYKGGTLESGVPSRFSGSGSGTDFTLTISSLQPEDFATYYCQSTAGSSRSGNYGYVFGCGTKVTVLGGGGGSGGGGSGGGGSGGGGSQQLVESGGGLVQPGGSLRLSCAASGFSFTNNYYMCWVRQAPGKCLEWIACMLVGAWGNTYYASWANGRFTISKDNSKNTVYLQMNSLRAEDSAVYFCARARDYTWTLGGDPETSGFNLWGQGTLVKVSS
light: DIQMTQSPSSLSASVGDRVTITCQASQSIGTYLAWYQQKPGKPPKLLIYRGGILASGVPSRFSGSGSGTDFTLTISSLQPEDFATYYCQSNFYSDSTTIGPNAFGQGTKVEIKRTVAAPSVFIFPPSDEQLKSGTASVVCLLNNFYPREAKVQWKVDNALQSGNSQESVTEQDSKDSTYSLSSTLTLSKADYEKHKVYACEVTHQGLSSPVTKSFNRGEC
notes: trispecific anti-PDL1 x CD47 x LILRB2; PDL1-BD (37-20-B03-sc18) as Fab
With B4, in assay [4], the “CD47 driven EC50 [nM]” value came out at 8.62 nM. Also, the “PD-L1 driven EC50 [nM]” value in assay [5] amounted to 0.043 nM. Further, in [6], the “CD86 EC50 [nM], re-polarization of M2 macrophages” value turned out to be 0.078 nM; the “CD163 EC50 [nM], re-polarization of M2 macrophages” value was determined as 0.07 nM; the “CD206 EC50 [nM], re-polarization of M2 macrophages” value was 0.124 nM. Also, in assay [7], the “IL-1β EC50 [nM], LPS-driven cytokine secretion” value worked out at 0.205 nM; the “IL-6 EC50 [nM], LPS-driven cytokine secretion” value was 0.097 nM; the “TNF-α EC50 [nM], LPS-driven cytokine secretion” value was 0.175 nM. Also, in the assay with recombinant human CD47, the Kd came to 25.2 nM, the koff stood at 0.0204 s⁻¹ and the kon is 811000 M⁻¹ s⁻¹. Also, in the assay with recombinant human PDL1 [8], the Kd came out at 0.0885 nM, the off-rate constant (koff) was 0.000116 s⁻¹ and the on-rate (kon) amounted to 1.31e+06 M⁻¹ s⁻¹. Besides, in the assay with recombinant human LILRB2, the Kd turned out to be 0.36 nM, the koff stood at 9.3e-05 s⁻¹ and the association rate constant (kon) worked out at 260000 M⁻¹ s⁻¹.

B5: PRO4688 (antibody, human IgG1, kappa)
chain: DVQMTQSPSSLSASVGDRVTITCQASQSISSWVSWYQQKPGKPPKLLIYRGGYLESGVPSRFSASGSGTDFTLTISSLQPEDFATYYCQSTDSSTYGGAFGCGTKVTVLGGGGGSGGGGSGGGGSGGGGSQQVVESGGGLVQPGGSLRLSCAVSGIDLNSYAMTWVRQAPGKCLEWIGYIGSASSTYYASWASGRFTISKDNSKNTVYLQMNSLRAEDSAVYFCARGSTYINIWGQGTLVKVSSEPKSSDKTHTCPPCPAPELLGGPSVFLFPPKPKDTLMISRTPEVTCVVVDVSHEDPEVKFNWYVDGVEVHNAKTKPREEQYNSTYRVVSVLTVLHQDWLNGKEYKCKVSNKALPAPIEKTISKAKGQPREPQVYTLPPCREEMTKNQVSLSCAVKGFYPSDIAVEWESNGQPENNYKTTPPVLDSDGSFFLVSKLTVDKSRWQQGNVFSCSVMHEALHNHYTQKSLSLSPGKGGGGSGGGGSDIQMTQSPSSLSASVGDRVTITCQSSESVYSNNQLSWYQQKPGQPPKLLIYDASDLASGVPSRFSGSGSGTDFTLTISSLQPEDFATYYCAGGFSSSSDTAFGCGTKLTVLGGGGGSGGGGSGGGGSGGGGSEVQLVESGGGLVQPGGSLRLSCAASGFSLSSNAMGWVRQAPGKCLEYIGIISVGGFTYYASWAKGRFTISRDNSKNTVYLQMNSLRAEDSATYFCARDRHGGDSSGAFYLWGQGTLVKVSS
heavy: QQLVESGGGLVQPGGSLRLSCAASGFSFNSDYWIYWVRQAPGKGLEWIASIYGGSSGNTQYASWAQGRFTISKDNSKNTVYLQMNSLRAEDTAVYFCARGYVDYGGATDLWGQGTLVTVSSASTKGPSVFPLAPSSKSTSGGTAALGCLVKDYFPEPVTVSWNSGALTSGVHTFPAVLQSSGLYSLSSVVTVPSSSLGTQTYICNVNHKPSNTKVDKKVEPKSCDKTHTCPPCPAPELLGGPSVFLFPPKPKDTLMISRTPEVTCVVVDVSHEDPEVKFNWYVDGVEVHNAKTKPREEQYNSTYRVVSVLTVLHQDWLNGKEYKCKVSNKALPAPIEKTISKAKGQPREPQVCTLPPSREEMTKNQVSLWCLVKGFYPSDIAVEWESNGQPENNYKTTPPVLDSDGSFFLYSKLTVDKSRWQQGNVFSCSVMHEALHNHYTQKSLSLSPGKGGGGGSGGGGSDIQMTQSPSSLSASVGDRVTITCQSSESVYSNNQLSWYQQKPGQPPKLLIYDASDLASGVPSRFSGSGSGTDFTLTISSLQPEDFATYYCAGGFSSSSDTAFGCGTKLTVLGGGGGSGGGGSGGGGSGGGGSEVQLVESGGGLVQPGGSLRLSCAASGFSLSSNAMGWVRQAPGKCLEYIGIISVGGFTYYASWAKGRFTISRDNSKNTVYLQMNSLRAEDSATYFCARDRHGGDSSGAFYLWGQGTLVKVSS
light: DIQMTQSPSSLSASVGDRVTITCQASQSIGTYLAWYQQKPGKPPKLLIYRGGILASGVPSRFSGSGSGTDFTLTISSLQPEDFATYYCQSNFYSDSTTIGPNAFGQGTKVEIKRTVAAPSVFIFPPSDEQLKSGTASVVCLLNNFYPREAKVQWKVDNALQSGNSQESVTEQDSKDSTYSLSSTLTLSKADYEKHKVYACEVTHQGLSSPVTKSFNRGEC
For B5, in assay [4], the “CD47 driven EC50 [nM]” value came out at 13.5 nM. Further, the “PD-L1 driven EC50 [nM]” value in [5] came to 0.08 nM.
